Measurements reported in doi:10.1101/2025.10.29.685445 (bioRxiv, 2025).

Columns and labels:
[1] = target: T1, HCoV-HKU1 RBD (residues 310-606 of isolate N5), as used in BLI (Human coronavirus HKU1, isolate N5, UniProt Q0ZME7); assay: BLI; conditions: both partners purified
T1 construct: source: FreeStyle 293-F, transfected (PEI), purified (Protein A, Superdex 200)

[2] = target: T2, HCoV-HKU1 RBD (residues 310-606 of isolate N5), Fc- and His-tagged (Human coronavirus HKU1, isolate N5, UniProt Q0ZME7); assay: SPR; conditions: both partners purified
T2 construct: also called HCoV-HKU1 S1-CTD; not shown: Fc-tag, C-terminal, kept; 8X HisTag, C-terminal, kept
T2 sequence (Q0ZME7 310-606): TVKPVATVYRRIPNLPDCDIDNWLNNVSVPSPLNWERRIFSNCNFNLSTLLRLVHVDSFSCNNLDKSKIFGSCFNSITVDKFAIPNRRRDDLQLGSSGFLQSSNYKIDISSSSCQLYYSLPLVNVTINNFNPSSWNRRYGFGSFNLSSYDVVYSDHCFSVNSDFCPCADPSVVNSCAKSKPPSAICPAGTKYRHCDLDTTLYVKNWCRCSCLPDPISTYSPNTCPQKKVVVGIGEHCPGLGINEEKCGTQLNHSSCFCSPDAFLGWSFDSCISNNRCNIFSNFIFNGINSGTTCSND

T1 sequence (Q0ZME7 310-606): as above

| Binder | Kd [1] [nM] | koff [1] [s⁻¹] | kon [1] [M⁻¹ s⁻¹] | Kd [2] [nM] |
| --- | --- | --- | --- | --- |
| H501-018 IgG (antibody, V domains shown, also called mAb H501–018; H-018; copies: 2 + 2) VH: QVQLQESGPGLVKPSETLSLTCSVSGGSISNFYWSWIRQPPGKGLEWIGYIYYTGSSEYNPSLKSRVILSVDTSKNHFSLKLSSVTAADTAIYYCARGTWSRRLEVDLWGQGTLVTVSS VL: QSVLTQPPSASGTPGQRVTISCSGSSSNIGSNYVYWYQQLPGTAPKLLIYRSIQRPSGVPDRFSGSKSGTSASLAISGLRSEDEADYYCATWDDSLNSWVFAGGTKLTVL | 0.37 | 0.000105 | 283000 | – |
| H501-022 IgG (antibody, V domains shown, also called mAb H501–022; H-022; copies: 2 + 2) VH: QGTLKESGPMLVKPTQTLTLTCNFSGFSLSTSGVGVGWIRQPPGKALECLALIYWNDDQRYSPSLKTRLTITKDTSKNQVVLTMTNMDPVDTATYYCVYSMSRPVAGGVIDHWGQGTLVTVSS VL: DIQLTQSPSSLSASEGDRVTITCWASQNIRGYLNWYQQKPGKAPKLLIYATSTLESGVPSRFSGSGSVTDYTLTISSLQPEDFATYSCQQSYSSPPTFGGGTKVDIK | 2.01 | 0.000555 | 276000 | – |
| H501-008 Fab (Fab, V domains shown, also called H501–08 Fab) VH: QVQLVQSGGGVVQPGRSLRLSCAVSGFTLDRYAMHWVRQAPGKALEWVALMSADGREQYYAESVKGRFTFSRDSSKNTLYLQMHNLRTDDSSVYFCAREGPMYYDAWSGRSYYNNYALDVWGRGTTVAVSS VL: QSVLTQPPSVSAAPGQTVTISCSGSSSNIGDNYVSWYQQVPGTAPRLLVYDNNRRPLGIPDRFSGSKSGTSATLAIAGLQTGDEADYYCGTWDSSLSAGVFGGGTKLTVV | – | – | – | 0.161 |
| H501-008 IgG (antibody, V domains shown, also called H501–08; mAb H501–008; copies: 2 + 2) VH: QVQLVQSGGGVVQPGRSLRLSCAVSGFTLDRYAMHWVRQAPGKALEWVALMSADGREQYYAESVKGRFTFSRDSSKNTLYLQMHNLRTDDSSVYFCAREGPMYYDAWSGRSYYNNYALDVWGRGTTVAVSS VL: QSVLTQPPSVSAAPGQTVTISCSGSSSNIGDNYVSWYQQVPGTAPRLLVYDNNRRPLGIPDRFSGSKSGTSATLAIAGLQTGDEADYYCGTWDSSLSAGVFGGGTKLTVV | 0.937 | 0.000315 | 336000 | – |
